Data as given in the RNAGym collection of RNA variant scans (doi:10.1073/pnas.2313332121).
This sample holds only a part of the variants without activity.

B1: TPR 5TU (parent)
chain: GGAUCUUCUCGAUCUAACAAAAAAGACAAAUCUGCCACAAAGCUUGAGAGCAUCUUCGGAUGCAGAGGCGGCAGCCUUCGGUGGCGCGAUAGCGCCAACGUUCUCAACUAUGACACGCAAAACGCGUGCUCCGUUGAAUGGAGUUUAUCAUG

Variants of: B1
Assay: polymerase ribozyme fitness, log enrichment relative to wild type (log ratio); higher = more active; in vitro selection for triplet polymerase activity
Summary of the method: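 To select mutant libraries of each subunit of a heterodimeric triplet polymerase ribozyme, built by PCR and transcribed, each was annealed with a biotinylated primer, partner subunit and triplets, then incubated frozen at −7 °C. Extended constructs were gel-excised, captured on streptavidin beads and amplified by RT-PCR, in one round carried out in triplicate. Illumina sequencing of input and output libraries kept genotypes with ≥10 input reads and ≥1 read per output. Fitness is the base-2 logarithm of genotype enrichment relative to wild-type enrichment, from inverse-variance-weighted replicate averages.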

Variant	polymerase ribozyme fitness (log ratio)
GGAUCUUCUCGAUCUAACAAAAAAGACAAAUCUGCCACGAAACUUGAGAGCAUCUUCGGAUGCAGAGGCGGCAGCCUUCGGUGGCGCGAUAGCGCCAACGUUCUCAACUAUGACACGCAAAACGCGUGCUCCGUUGAAUGGAGUUUAUCAUG [A39G G42A]	-3.64
GGAUCUUCUCGAUCUAACAAAAAAGACAAAUCUGCCACGAAGCUUGAAAGUAUCUCCGUAUGCAGAGGCGGCAGCCUUCGGUGGCGCGAUAGCGCCAACGUUCUCAACUAUGACACGCAAAACGCGUGCUCCGUUGAAUGGAGUUUAUCCUG [A39G G48A C51U U56C G59U A150C]	≤ -4.2
GGAUCUUCUCGAUCUAACAAAAAAGACAAAUCUGCCACGAAGCUUGAGAGCAUAUUCGGAUGCAGAGGCGGCAGCCUUCGGUGGCGCGAUGGCACCAACGUUCUCAACUAUGACACGCAAAACGCGUGCUCCGUUGAAUGGAGUUUAUCAUG [A39G C54A A91G G94A]	≤ -4.2
GGAUCUUCUCGAUCUAACAAAAAAGACAAAUCUGCCACGAAGCUUGAGAGCAUCUUCGGAUGCAGAGGCGGCAGCCUUCGGUGGCGCGAUAGCGCCUACGUUCUCAACUAUGACACGCAAAACGCGUGCUCCGUUGAAUGGAGUUUAUCAUG [A39G A97U]	-2.96
GGAUCUUCUCGAUCUAACAAAAAAGACAAAUCUGCCACGAAGCUUGAGAGCAUCUUCGGAUGCAGAGGCGGCAGUCUUCGGUGGUGCGAUAGCGCCAACGUUCUCAACUAUGACACGCAAAACGCGUGCUCCGUUGGAUGGAGUUUAUCAUG [A39G C75U C85U A137G]	-3.67
GGAUCUUCUCGAUCUAACAAAAAAGACAAAUCUGCCACGAAGCUUGAGAGCAUCUUGGGAUGCAGAGGCGGCAGCCUUCGGUGGCGCGAUAGCGCCAACGUUCUGAACUAUGACACGCAAAACGCGUGCUCCGUUGAAUGGAGUUUUUCAUG [A39G C57G C105G A147U]	-3.4
GGAUCUUCUCGAUCUAACAAAAAAGACAAAUCUGCCACGAAGCUUGAGAGCAUCUUCGGAUGGAGAGGCCGCAGCCUUCGGUGGCGUGAUGGCGCCAAAGUUCUCAACUAUGACACGCAGAACGCGUGCUCCGUUGAAUGGAGUUUAUCAUG [A39G C63G G70C C87U A91G C99A A120G]	≤ -4.2
GGAUCUUCUCGAUCUAACAAAAAAGACAAAUCUGCCACGAAGCUUGAGAGCAUCUUCGGAUGCAGAGGCGGCAGCCUUCGGUGGCGUGAUAGCGCCAACGUUCUCAACUAUGACACGCAAAACGCGUGCUCCGUUGAAUGGAGUUUCUAAUG [A39G C87U A147C C149A]	≤ -4.2
GGAUCUUCUCGAUCUAACAAAAAAGACAAAUCUGCCACGAAGCUUGAGAGCAUCUUCUCAUGCAGAGGCGGCAGCCUUCGGUGGCGCGAUAGCGCCAACGUUCUCAACUAUGACACGCAAAACCCGUGCUCCGUUAAAUGGAGUUUAUCAUG [A39G G58U G59C G124C G136A]	≤ -4.2
GGAUCUUCUCGAUCUAACAAAAAAGACAAAUCUGCCACGAAGCUUGAGAGCAUCUUCGGCUGCAGAGGCGGCAGCCUUCGGUGGCGCGAUAGCGCCAACGUUCUCAACUAUGACACGCAAAACGCGUGCUCCGUUGAAUGGAGUUUAUCAUG [A39G A60C]	-3.03
GGAUCUUCUCGAUCUAACAAAAAAGACAAAUCUGCCACGAAGCUUGAGAGCAUCUUCGGAUGCAGAGGCGGCAGCCUUCGGUGGCGCGAUAGCGCCAACGUUCUCAACUAUGACACGUAAAACGCGUGCUCCGUUGAAUGGAGUUUAUCAUG [A39G C118U]	-1.27
GGAUCUUCUCGAUCUAACAAAAAAGACAAAUCUGCCACGAAGCUUGAGAGCCUGUUCGGAUGCAGAGGCGGCAGCCUUCGGUGGUGCGAUAGCGCCAACGUUCUCAACUAUGACACGCAAAACGUUUGCUCCGUUGAAUGGAGUUUCUCAUG [A39G A52C C54G C85U C125U G126U A147C]	≤ -4.2
GGAUCUUCUCGAUCUAACAAAAAAGACAAAUCUGCCACGAAGCUUGAAAGCAUAUUCGGAUGCAGAGGCGGCAGCCUUCGGUGGCGCAAUAGCGCCAACGUUCUCAACUAUGACACGCAAAACGUGUGCUCCGGUGAAUGGAGUCUAUCAUG [A39G G48A C54A G88A C125U U134G U145C]	≤ -4.2
GGAUCUUCUCGAUCUAACAAAAAAGACAAAUCUGCCACGAAGCUUGAGAGCAUCUUCGGAUGCAGAGGCGGCGGCCUUCGGUGGCGCGAUAGCGCCAACGUUCUCAACAAUGACACGCUAAACGCGUGCUCCGUUGAAUGGAGUUUAUCAUG [A39G A73G U109A A119U]	-3.91
GGAUCUUCUCGAUCUAACAAAAAAGACAAAUCUGCCACGAAGCUUGAGAGCAUCUUCGGAUGCAGAGGCGGCAGCCUUCGGUGGCGCGAUAGCGCCAACGUUCUGAACUAUGACACGCAAAACGCGUGCUCCGUUGAAUGGAGUUUAUCAUG [A39G C105G]	-3.19
GGAUCUUCUCGAUCUAACAAAAAAGACAAAUCUGCCACGAAGCUUGAGACGAUCUUCAGAUGCAGAGGCGGCAGCCUUCGGUGGCGCGAUAGGGCCAACGUUCUCAACUAUGACACGCAAAACGCGUGCUCCGUUGAAGGGAGUUUAUCAUG [A39G G50C C51G G58A C93G U139G]	≤ -4.2
GGAUCUUCUCGAUCUAACAAAAAAGACAAAUCUGCCACGAAGCUUGAGAGUUUCUUCGGAUGCAGAGGCGGCAACCUUCGGUGGCGCGAUAGCGCCAACGUUCUCAACUAUGACACGCAAAACGCGUGCUCCGUUGAAUGGAGUUUAUCAUG [A39G C51U A52U G74A]	≤ -4.2
GGAUCUUCUCGAUCUAACAAAAAAGACAAAUCUGCCACGAAGCUUGAGAGCAUCUUCGGAUGCAGAGGCGGCAGCCUUCGGUGGCGCGAUAGCGCCAAAGUUCUCAACUAUGACACGCAAAACGCGUGCUCCGUUGAAUGGAGUUUAUCAUG [A39G C99A]	-3.78
GGAUCUUCUCGAUCUAACAAAAAAGACAAAUCUGCCACGAAGCUUGAGAGCAUCUUCGGAUGCAGAGGCGGCAGCCUUCGGUGGCGCGGUAACGCCAACGUUCUCAACUAUGACACGCAAAACGCGUGCUCCGUUGAAUGCAGUUUAUCAUG [A39G A89G G92A G141C]	-3.85

Variant	polymerase ribozyme fitness (log ratio)
GGAUCUUCUCGAUCUAACAAAAAAGACAAAUCUGCCACGAAACUUGACCGCAUCUUCGGAUGCAGAGGCGGCAGCCUUCGGUUGCGGGAUAGCGCAAACGUUCUCAUCUAUGACACGCAAAACGCGUGCUCCGUUGAAUGGAGUUUAUCAUG [A39G G42A G48C A49C G83U C87G C96A A107U]	≤ -4.2
GGAUCUUCUCGAUCUAACAAAAAAGACAAAUCUGCCACGAAGCUUGAGAGCAUCUUCGAAUGCAGAGGCGGCAGCCUUCGGUGGCGCGAUAGCGCGAACGUUCUCAACUAUGACACGCAAAACGCGUGCUCCGUUGAAUGGAGUUCAUCAUG [A39G G59A C96G U146C]	-3.67
GGAUCUUCUCGAUCUAACAAAAAAGACAAAUCUGCCACCAAGCUUGAGAGCAUCUUCGGAUGCAGAGGCGGCAGCCUUCGGUGGCGCGAUAGCGCCAACGUUCUCAACUAUGACACGCAAAACGCGUGCUCCGUUGAAUGGAGUCUAUCAUG [A39C U145C]	-1.66
GGAUCUUCUCGAUCUAACAAAAAAGACAAAUCUGCCACGAAACUUGAGAGCAUCUUCGGAUGCAGAGGCGGCAGCCUUCGGUGGCGCCAUAGCGCCAACGUUCUCAACUAUGACACGCAAAACGCGUGCUCCGUUGAAUGGAGUUUAUCAUG [A39G G42A G88C]	≤ -4.2
GGAUCUUCUCGAUCUAACAAAAAAGACAAAUCUGCCACGAAGCUUGAGAGCAUCUUCGGAUGCAGAGGCGGCAGCCUUCGGUGGCGUGGUAGCGCCAACGUUCUCAACUAUGACACGCAAAACGCAUGCUCUGUUGAAUGGAGUUUAUCAUG [A39G C87U A89G G126A C132U]	≤ -4.2
GGAUCUUCUCGAUCUAACAAAAAAGACAAAUCUGCCACGAAGCUUGAGAGCAUCUUCUGAUGCAGAGGCGGCAGCCUUCGGCGGCGCGAUAGCGCCAACGUUCUCAAAUAUGACACGCAAAACGCGUGCUCCGUUGAAUGGAGUUAAUCCUG [A39G G58U U82C C108A U146A A150C]	≤ -4.2
GGAUCUUCUCGAUCUAACAAAAAAGACAAAUCUGCCACGAGGCUUGAGGGCAUCUUCGGAUGCAGAGGCGGCAGCCUUCGGUCGCGCGAUAGCGCCAACGUUCUCAACUAUGACACGCAAAACGCGUGCUCCGUUGAAUGGAGUAUAUCAUG [A39G A41G A49G G83C U145A]	-3.94
GGAUCUUCUCGAUCUAACAAAAAAGACAAAUCUGCCACGAAGCUUGAGAGCAUGUUAGGAUGCAGAGGCGGCAGCCUUCGGUGGCGCGAUAGCGCCAACGUUCUCAACUAUGACACGCAAAACGCGUGCUCCGUUGAAUGGAGUUUAUCAUG [A39G C54G C57A]	-3.22
GGAUCUUCUCGAUCUAACAAAAAAGACAAAUCUGCCACGAAGCUUGAGAGCAUCUUCGGAUGCAGAGGCGGCAGUCUUCGGUGGUGCGAUAGCGCCAACGUUCUCAACUAUGACACGCAAAACGCGUGCUCCGUUGAAUGGAGUUUAUCAUG [A39G C75U C85U]	-3.44
GGAUCUUCUCGAUCUAACAAAAAAGACAAAUCUGCCACGAAGCUUGAGAGCAUCUUCGGCUGCAGAUGCGGCAGCCUUCGGUGGCGCGAUAGCGCCAAGGUUCUCAACUAUGACACGCAAAACGCGUGCUCCGUUGAAUGGACUUUAUCAUG [A39G A60C G67U C99G G143C]	≤ -4.2
GGAUCUUCUCGAUCUAACAAAAAAGACAAAUCUGCCACGAAGCUUGCGAGCAUCUUCGGAUGCAGAGGCGGCAGCCUUCGGUGGCGCGAUAGCGCCAACGUUCUCAACUAUGACACGCAAAAUGCGUGCUCCGUUGAAUGGAGUUUAUCGUA [A39G A47C C123U A150G G152A]	-3.23
GGAUCUUCUCGAUCUAACAAAAAAGACAAAUCUGCCACGAACCUUGCGAGCAUCUUCGGAUGCAGAGGCGGCAGCCUUCGGUGGCGCGAUUGUGCCAACGGUCUCAACUAUGACACGCUAAACGUGUGCUCCUUUAAAUGGAGUUUAUCAUG [A39G G42C A47C A91U C93U U101G A119U C125U G133U G136A]	≤ -4.2
GGAUCUUCUCGAUCUAACAAAAAAGACAAAUCUGCCACGAAGCUUGAGAGCAUCUUCGGAUGCAGAGGCGGCAGCCUUCGGUGGCGCGAUAGCGCCAACGUUCUCAACUAUGACACGCAAAACGCGUGCUCCGUUGGAUGGAGUUUAUCAUG [A39G A137G]	-3.57
GGAUCUUCUCGAUCUAACAAAAAAGACAAAUCUGCCACGAAGCUUGAGAGCAUCUUCGGAUGCAGAGGCGGCAGCCUUCGGUGGCGCGAUGGCGCCAACGUUCUCAACUAUGACACGCAAAACGCGUGCUCCGUUGGAUGGAGUUUAUCAUG [A39G A91G A137G]	≤ -4.2
GGAUCUUCUCGAUCUAACAAAAAAGACAAAUCUGCCACGAAGCUUGAGAGCAUCUUAGGAUGCAGAGGCGGCAGCCUUCGGUGGCGUGAUAGCGCCAACGUUCUCAACUAUGACACGCAAAACGCGUGCUCCGUUGAAUGGAGUUUAUCAUG [A39G C57A C87U]	-1.73
GGAUCUUCUCGAUCUAACAAAAAAGACAAAUCUGCCACGAAGCUUGAGAGCAUCUUAGGAUGCAGAGGCGGCAGCCUUCGGUGGCGCGAUAGCGCCAAGGUUCUCAACUAUGACACGCAAAACGCGUGCUCCGUUGAAUGGAGUUUAUCAUG [A39G C57A C99G]	-3.15
GGAUCUUCUCGAUCUAACAAAAAAGACAAAUCUGCCACGAAGCUUGAGAGCAUCUUCGGAUGCAGAGGCGGCAGCCUUCGGUGGCGCGAUAGCGCCAACGUUCUCAACUAUGACACGCAAAACGCGUGCUCCGUUGAAUGGAGUUUUUCAUG [A39G A147U]	-0.693
GGAUCUUCUCGAUCUAACAAAAAAGACAAAUCUGCCACGAAACUUGAGAGCAUCUUCGGAUGCAGAGGCGGCAGCCUUCGGUGGCGGGAUAGCGCCAACGUUCUCAACUAUGACACGCAAAACGCGUGCUCCGUUGAAUGGAGUUUAUCAUG [A39G G42A C87G]	≤ -4.2
GGAUCUUCUCGAUCUAACAAAAAAGACAAAUCUGCCACGAAGCUUGAGAGCAUCUUCGGAUGCAGAGGCGGCAGCCUUCGGUGGCGCGAUAGCGCCAACGUUGUCAACUAUGACACGCAAAACGCUUGCUCCGUUGAAUGGAGUUUAUCAUG [A39G C103G G126U]	≤ -4.2
